The text below walks through data of US20040265295A1 (WISCONSIN ALUMNI RESEARCH FOUNDATION, published 2004).

In assay [1] the target is T1, GST-talin head Lys^357->Gln mutant (human, UniProt Q9Y490 1-435).
T1 construct: Talin head mutant in pET42; also called mutant GST-talin; not shown: GST (and further tags) of the pET42 vector
As to the kind of experiment: GST pull-down. The protocol:
(§1) Purified GST-talin head proteins were incubated with PIPKIγ661 tails or β1-integrin tail, together with Glutathione SEPHAROSE™ 4 Fast Flow (Amersham Biosciences, Piscataway, N.J.), in Buffer B (PBS, 0.2% NP-40, 2 mM DTT) at 4° C. for 4 hours. The beads were washed three times with Buffer B and analyzed by western blot. For competition assays, GST-talin head proteins were incubated with peptides or competing proteins for 2 hours, then the binding proteins were added and the mixtures were incubated for another 4 hours.

The target of assay [2] is T2, GST-talin head Arg^358->Gln mutant (human, UniProt Q9Y490 1-435).
T2 construct: Talin head mutant in pET42; also called mutant GST-talin; not shown: GST (and further tags) of the pET42 vector
T2 sequence (Q9Y490 other isoform, or with tags, fused parts or gaps mutant): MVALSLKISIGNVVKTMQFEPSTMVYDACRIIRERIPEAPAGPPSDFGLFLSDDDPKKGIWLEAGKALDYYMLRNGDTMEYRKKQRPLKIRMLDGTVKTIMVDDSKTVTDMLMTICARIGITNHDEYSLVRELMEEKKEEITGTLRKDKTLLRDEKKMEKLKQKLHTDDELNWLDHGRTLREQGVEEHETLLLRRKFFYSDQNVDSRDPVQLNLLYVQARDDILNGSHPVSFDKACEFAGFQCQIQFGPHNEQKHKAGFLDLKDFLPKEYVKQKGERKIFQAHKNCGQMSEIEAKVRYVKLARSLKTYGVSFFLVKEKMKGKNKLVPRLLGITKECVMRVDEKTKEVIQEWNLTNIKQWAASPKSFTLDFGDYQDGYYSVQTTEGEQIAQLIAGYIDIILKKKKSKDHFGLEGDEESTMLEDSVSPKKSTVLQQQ
As to the kind of experiment: GST pull-down. As for the experimental part: as §1

Ends that are not written are not given here.

T1 sequence (Q9Y490 other isoform, or with tags, fused parts or gaps mutant): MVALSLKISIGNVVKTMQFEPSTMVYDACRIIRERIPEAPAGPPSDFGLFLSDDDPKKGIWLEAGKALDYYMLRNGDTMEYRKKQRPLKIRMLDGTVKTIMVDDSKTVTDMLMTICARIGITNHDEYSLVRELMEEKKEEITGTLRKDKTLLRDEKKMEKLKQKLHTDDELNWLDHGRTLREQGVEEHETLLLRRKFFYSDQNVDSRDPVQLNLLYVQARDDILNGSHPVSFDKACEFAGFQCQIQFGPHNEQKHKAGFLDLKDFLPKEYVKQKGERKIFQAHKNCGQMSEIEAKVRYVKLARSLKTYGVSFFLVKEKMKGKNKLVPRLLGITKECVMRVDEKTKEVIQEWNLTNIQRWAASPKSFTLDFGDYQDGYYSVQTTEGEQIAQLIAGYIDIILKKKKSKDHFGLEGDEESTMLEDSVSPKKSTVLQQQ

B1: His-tagged mouse β1-integrin tail (receptor, UniProt P09055 752-798, looked up)
chain: KLLMIIHDRREFAKFEKEKMNAKWDTGENPIYKSAVTTVVNPKYEGK
modifications: not fully specified (N-terminus); also: N-terminal His tag of pET28 vector, sequence not given here
notes: domain: tail; also called His-β1-integrin tail; His-β-integrin; not shown: His tag of the pET28 vector
Turning to B1, the binding result in assay [1] and in assay [2] was “no binding” throughout.
